Assay: yeast display, Sf9 membrane polyspecificity reagent, FACS + sequencing; frameworks hold sequencing errors
Outline: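 After 36–48 hours of galactose induction, yeast (Saccharomyces cerevisiae BJ5465) displaying a synthetic nanobody library were stained at 4 °C for 1 hour with 10% biotinylated, detergent-solubilized Sf9 membrane reagent. Streptavidin microbeads enriched the stained cells before FACS sorting into low and high (top ~1%) gates on anti-HA and streptavidin fluorescence. Each clone's polyreactivity label reflects its gate of origin.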

| Sequence | polyreactivity (PSR sort gate) |
| --- | --- |
| QVQLVESGGGLVQAGGSLRLTCAASGSTSEVYAMGWYRQAPGKEREFVAAISRSGGTTYYADSVKGRFTISRDNAKNTVYLQMKSVKPEDTAVYYCNARGYSGVSGKYGYWGQGTQVTVSS | high polyreactivity |
| QVQLVESGGGLVQAGGSLRLTCAASGSTSPANTMGWYRQAPGKETEFVAGISRRGGRTYYADSVKGRFTISRDNAKNTVYLQMNSLKPEDTAVFYCATALIVRCPSRYEYWGQGTQVTVSS | high polyreactivity |
| QVQLVESGGGLVQAGGSLRLTCAATGRIFSRYAMGWYRQAPGKERELVAAISRSGGSTYYADSVKGRFTISRDNAKNTVYFQMNSLKPEDTAVYYCAARNVFSYPPGSYYYWGQGTQVTVSS | high polyreactivity |
| QVQLVESGGGLVQAGGSLRLTCAGSGSTYGKYAIGGYRQAPGKERQLVAAISYRGGRTFYADSVKGRFTISRDNAKNTVFLQMKSLKPEDTAVYYCAAYPGVSRGTGPRRYDYWGQGTQVTVSS | high polyreactivity |
| QVQLVESGGGLVQAGGSLRLTCASSGIIFKLYAMGWYRQAPAKESELVAAITYRGGTTYYADSVKGRFTITRDNAKNTVYLQMNSLKPEDTAVYYCAVAVTSYSSKKLYYWGQGTQVTVSS | low polyreactivity |
| QVQLVESGGGLVQAGGSLRLTCASSGRILVSYAIGWYRQAPGKERELVAAISRSGGSTYYADSVKGRFTISRDIAKNTVYLQMNSLKTEDTAVYYCNVYRFSRYDYWGQGTKVTVSS | high polyreactivity |
| QVQLVESGGGLVQAGGSLRLTCDASGRIFVHNAMGWYRQAPGKERELVAAISWSGSSTYYADSVKGRFTISRDNAKNSVYLQMNSLKPEDTAVYYCLGQGTQVTVSS | low polyreactivity |
| QVQLVESGGGLVQAGGSLRLTCGASGRIFSFYVMGWYRQAPGKERELVAAISLSGGSTYYADSVKGRFTISRDNAKNTVYLQMNSLKPEDTAVYYCAARYASPRYKSKMDYWGQGTQVTVSS | high polyreactivity |
| QVQLVESGGGLVQAGGSLRLTSAASGFIFWPYLMGWYRQAPGKDRELVAAISQGDGSTYYADSVKVRFTISRDNAKNTVYLQMNSLKGEDTAVYYCAADVTVAWYPVYPGFYYWGQGTQVTVSS | low polyreactivity |
| QVQLVESGGGLVQAGGSLRLTSAASGRIFGYYAMGWYRQAPGKERDLVAAIRYSSGRTYYADSVKGRFTISRDNAKNIVYLQMNSLKPEDTAVYYGNAGYLFLRSYPHDYWGQGTQVTVSS | high polyreactivity |
| QVQLVESGGGLVQAGGSLRLTSAASGSTFLKYTMGWYRQAPGKERELVAGITYSGGSTSYADSVKGRFTISRDNAKNTVYFQMNSLKPEDTAVYYSAAARNTVYSYRGLFYWGQGTQVTLSS | high polyreactivity |
| QVQLVESGGGLVQAGGSLRRSCAAYGRIFTMNAMGWYRQAPGKESELVAVISRSGCSTYYADSVKGRFTISRDNAKNTVYLQMNSLNPEDTAVYYCNAVPIYYAWRRNKPFDYWGLGTQVTVSS | low polyreactivity |
| QVQLVESGGGLVQAGGSLRVSCAASGFIIEVNSMAWYRQAPGKERELVARIDWSGGSTYYADSVKGRFTISRDNAKNTVFLQMNSLIPEDTAVYYCAVVASRSHTETPEYDYWGQGTQVTVSS | low polyreactivity |
| QVQLVESGGGLVQAGGSLRVSCAASGFTFGPNAMGWYSQAPGKERELVAAISQSGGSTYADSEKGRFTISRDNAKNTDYLHMNSLKPEDTAVYYCAAEFPDYYWWYEYWGQGTQVTVSS | high polyreactivity |
| QVQLVESGGGLVQAGGSLRVSCAASGFTFYLYAMGWYRQAPGKERELVAAITWSGGRTYYADSVKGRFTISRDNAKNTVYLQMNSLKPEDTAVYNCAAVVRKQLSAPSDYWGQGTQVTVSS | high polyreactivity |
| QVQLVESGGGLVQAGGSLRVSCAASGFTFYRYAMGWYRQAPGKERELVAAITWSGGSTYYADSVKGRFTISRDNAKNTVYLQMNSLKPEDTAVYYCAADIYDGGFDYWGQGTQVTVSS | low polyreactivity |
| QVQLVESGGGLVQAGGSLRVSCAASGIIFRIYAMGWYRQAPGKEREFVAAISGSGDSTYYADSVKGRLTISRDNAKTTVYLQMNSLKPEDTAVYYCAADWTLVYYHEDYWGQGTQVTVSS | low polyreactivity |
| QVQLVESGGGLVQAGGSLRVSCAASGRIFFPYDMGWYRQAPGKERELVAAITNSGGRTYYADSVKGRFTISRDKAKNTVYLQMNSLKPEDTAVYYCNADAYEFRWVKHYDYWGQGTQVTVSS | low polyreactivity |
| QVQLVESGGGLVQAGGSLRVSCAASGRIFRWYAMGWYRQAPGKERELVAAITSRGTSTYYADSVKGRFTISRDNAKNTDYLQMNSLKPEDTAVYYCNAVPSRGYDYWGQGTQVTVSS | high polyreactivity |
| QVQLVESGGGLVQAGGSLRVSCAASGRIFVQYDMGWYRQAPGKERELVAAINDSGDITYYADSVKGRFTISRDNAKNTVYLQMTSLKPEDTAVYSCAASAAYYGFYKSVTYDYWGQGTQVSVSS | low polyreactivity |
| QVQLVESGGGLVQAGGSLRVSCAASGRIFWYNDMGWYRQAPGKERELVAAITARGTRTHYADSVKGRFTISRDNAKKTVYLQMNSLKPEDTAVYYCAKGWYTVVWDAPVFSERGEYWGQGTQVTVSS | low polyreactivity |

| Sequence | polyreactivity (PSR sort gate) |
| --- | --- |
| QVQLVESGGGLVQAGGSLRVSCAASGRTFGYNAMGWYRQAPGKERELVATISWGGGSTYYADSVKVRFTISRDNAKNTVYLQMNSLKPEDTAVYYCAATYWTYPYHYQYKYDYWGQGTQVTVSS | high polyreactivity |
| QVQLVESGGGLVQAGGSLRVSCAASGRTFRSYAMGWYRQAPGKERELVAAIRRGGSTNYADSVKGRFPISRDNAKYTVYLQMNSLKPEDTAVYYCAARYTRWRYNYKDYDYWGQGTQVTVSS | high polyreactivity |
| QVQLVESGGGLVQAGGSLRVSCAASGRTFRYYAMGWYRQAPGKERELVASISDGGSTNYADSVKGRFTISRDNAKNTVYLQMNSQKPEDTAVYYCNAKAYVWYLYDEFGYWGQGTQVTVSS | low polyreactivity |
| QVQLVESGGGLVQAGGSLRVSCAASGSIFGYYAMGWSRQAPGKERELVAGINWSGGSTYADSVKGRFTISRDNAKNTVYLKMNSLKPEDTAVYYCYLRYRKYSSAKYDYWGQGTQVTVSS | high polyreactivity |
| QVQLVESGGGLVQAGGSLRVSCAASGSIFQYYGMGWYRQAPGKERELVAAISRGGSTNYADSVKGRFTISRDYAKNTGYLQMNSLKPEDTAVYYCNARTYRKAYSGYNYWGQGTQVTVSS | high polyreactivity |
| QVQLVESGGGLVQAGGSLRVSCAASGSIFRWYTMGCYRQAPGKEREFVADISWSGGRTYYADSVKGRFTISRDNASYSVYLQMNCLKPEDTAVYYCNAEHNTRYDYWGQGTQVSVSS | low polyreactivity |
| QVQLVESGGGLVQAGGSLRVSCAASGSIFSIYAMGWYRQAPGKERELVASITRSSGRTYYADSVKGRFTISRDNAKKTVYLQMNSLKPEDTAVYYCAKDYIPLALDADDYWGQGTQVSVSS | low polyreactivity |
| QVQLVESGGGLVQAGGSLRVSCAASGSTFDPNAMGWYRQATGKERELVADIDSGGSTYYADSVKGRFTISRDNAKNTVYLQMNSMKPEDTAVYYCATKQPTWVPRVIISYTKFDYWGQGTQVTVSS | low polyreactivity |
| QVQLVESGGGLVQAGGSLRVSCAASGSTFDVNAMGWYRQAPGKERELVAVITSGGSTNYADSVKGRFTISRDNAKNSVYLQMNSLKPEATAVYYCAKDSRTLYDYWGQGTQVTVSS | low polyreactivity |
| QVQLVESGGGLVQAGGSLRVSCAASGSTFILNAMGWYRQAPGKERELVATISSSDTSTYYADSVKGRFTISRDHAKNTVYLQMNSMKPEDTAVYYCNADYYTTAYLQRVYHYGVEYDYWGQVTQVTVSS | low polyreactivity |
| QVQLVESGGGLVQAGGSLRVSCAASGSTFYYYAMGGYSQAPGKERELVAAISSRGGSTYYADSVKGRFRISRDNAKNTVYLQMNSLKPEDTAVYYCAASSQRISPDHDYWGQGTQVTVSS | high polyreactivity |
| QVQLVESGGGLVQAGGSLRYSCAASGLIFQHNALGWYRPAPGKERELVAAISGSGGSTYYADSVKGRFTISRDNAKNTVYLQMNSLKPEDTAVYYCATDDRYYRRYYWGQGTQVTVAS | high polyreactivity |
| QVQLVESGGGLVQAGGSLSFSCAAPGSIFPRYAMGWYRQAPGKERELVAAISRSGGSTYYADSVKGRFTISRDNAKNSVYLQMNSLKPEDTAVYYCATDKVSHRRYDYWGQGTQVTVSS | high polyreactivity |
| QVQLVESGGGLVQAGGSLSFSCAASGFIFRAYTMGWYRQAPGKERELVAAITSSGGRTYYADSVKGRFTISRDNAKNSVYLQMNSLKPEDTAVYYCATVYAKWKQFDYWGQGTQVTVSS | high polyreactivity |
| QVQLVESGGGLVQAGGSLSISCAASDLPGLCYGWYRQAPGKERELVAAMTSNGGSTYYADSVKGRFTISRDNAKITVYLQMNSLKPEDTAVYYCATEHHTVQVYDYWGQGTQVTVSS | low polyreactivity |
| QVQLVESGGGLVQAGGSLSLICAASGGTFYKYAMGWYRQAPGKERELDAAISRSGGSTYYADSVKGRFTISRDNAKNTVYLQINRLKPEDTAVYYCKAYGSYWDFDYWGQRTQVTVSS | high polyreactivity |
| QVQLVESGGGLVQAGGSLSLICAASGSIFTRNAMGWYRQAPGKERELVAAISRRGVSTYYADSVKGRFTNSRDNAKNTVYLQMNSLKPEDTAVYYCNKLSSYVVARRTTEYDYWGQGTQVTVSS | high polyreactivity |
| QVQLVESGGGLVQAGGSLSLICAASGYTLKYYAMGWYRQAPGKERELVAVISRGGSTYYADSVKGRFTISRDNAKNTVYLQMNSLNPEDTAVYYCAKRPTQGYYPYGYWGQGTQVTVSS | high polyreactivity |
| QVQLVESGGGLVQAGGSLSLICAAYGTTFEYYAMRWYRQAPGKERELVATISIDGRTNYADSVKGRFTISRDNAKNTVYLQMISLKPEDTAVYYCAARPYWRHRYDYWGQGTQVTVSS | low polyreactivity |
| QVQLVESGGGLVQAGGSLSLNCAASGFTFLQYPMGWYRQAPGKERELVATISSGGSTYYADSVKGRFTISPDNAKNTVYLQMNSLKPEDTAVYYCADTGYSSCTYYTHEYWGQGTQVTVSS | low polyreactivity |

— the nanobody polyreactivity screen of Harvey et al. (2022)
